Test results as given in US20220401560A1, “PEPTIDE ENCAPSULATING FERRITIN” (Ajinomoto Co., Inc., priority 2019, published 2022).
No end group written: not given here.

Biological target: T1, ferritin (FTH) (Homo sapiens, UniProt P02794)
T1 construct: made in house; host or cells: Escherichia coli BL21 (DE3), plasmid pET20-FTH
Test: Encapsulation of fluorescent dye-modified peptide into FTH, column chromatography with absorbance at 480 nm and LC-MS
Procedure: Of a 50 mM glycine hydrochloride buffer (pH 2.3) that contains FTH (chemical formula weight: 509,421) at a final concentration of 5 mg/mL and the peptide at a final concentration of 0.5 mM, 0.5 mL was left to stand at room temperature for 15 minutes. Next, 50 μL of a 1 M Tris hydrochloride buffer (pH 9.0) was added for neutralization, and the resulting solution was left to stand at room temperature for 3 hours. After the standing, the resulting solution was centrifuged (at 15,000 rpm for one minute). Then, the supernatant was collected and the volume was increased up to 3 mL with a 10 mM Tris hydrochloride buffer (pH 8). The resulting solution was injected into the HiPrep 26/60 Sephacryl S-300 HR column (GE Healthcare Inc.) equilibrated with a 10 mM Tris-HCl buffer (pH 8.0) to separate and purify 24-mer FTH by size at a flow rate of 1.3 mL/minute. The purified ferritin was analyzed using a HiPrep 16/60 Sephacryl S-300 HR column (GE Healthcare Inc.) equilibrated with a 10 mM Tris-HCl buffer (pH 8.0) at a flow rate of 0.5 mL/minute and confirmed as the absorbance at 480 nm unobservable from FTH only, at the same position as that of a peak of FTH.
The solution containing the FTH was concentrated to 0.25 mL by centrifugal ultrafiltration using Vivaspin 20-100K (GE Healthcare Inc.). […] For the LC-MS analysis, 50 μL of a 1 M glycine hydrochloride buffer (pH 2.3) was added to 50 μL of the sample solution and then the resulting solution was left to stand at room temperature for 15 minutes. To the solution 900 μL of ethanol was added. Next, the resulting solution was stirred vigorously and then centrifuged (at 15,000 rpm for five minutes) to collect its supernatant. The supernatant was analyzed using LCMS-2020 (Shimadzu Corporation) as LC-MS, inertsil (Registered trademark) ODS-3 with a particle diameter of 2 μm and 2.1 mm×50 mm (GL science) as a column. Into the column, 10 μL of the sample was injected, and eluded at a flow rate of 0.2 mL/min for 10 minutes such that a mixing ratio of a solution A (0.1% formic acid/99.9% acetonitrile) and a solution B (50% water/50% acetonitrile) was from 95:5 to 95:5. The concentration of the contained protein was determined using a protein assay CBB solution (Nacalai Tesque, Inc.) in terms of bovine albumin as a standard. The concentration of the encapsulated peptide was determined based on the absorbance at 480 nm of the fluorescent dye FAM to which PKC-F is modified.
First, the construction of FTH encapsulating two kinds of fluorescent dye-modified peptides [5(6)—FAM-[…] (SEQ ID NO: 10), FAM-SV40, chemical formula weight 1,516, and 5(6)—FAM-[…] […] (SEQ ID NO: 11), FAN-Np, chemical formula weight 384] was attempted. 0.5 mL of a 50 mM glycine hydrochloride buffer (pH 2.3) that contains FTH (chemical formula weight 509,421) at a final concentration of 5 mg/mL and a peptide at a final concentration of 0.5 mM, was left to stand at room temperature for 15 minutes. Next, 50 μL of a 1 M Tris hydrochloride buffer (pH 9.0) was added for neutralization, and the resulting solution was left to stand at room temperature for 3 hours. […] The absorbance at […] was confirmed at the same elusion position as that of ferritin 24-mer, for ferritin that was used for the operation to encapsulate FAM-SV40 therein. […] Next, the peptide amount of FAM-SV40 encapsulated in purified ferritin was quantified based on the 480 nm absorbance and by CBB staining with use of ferritin-amount-albumin as a standard.

T1 sequence (P02794 whole entry): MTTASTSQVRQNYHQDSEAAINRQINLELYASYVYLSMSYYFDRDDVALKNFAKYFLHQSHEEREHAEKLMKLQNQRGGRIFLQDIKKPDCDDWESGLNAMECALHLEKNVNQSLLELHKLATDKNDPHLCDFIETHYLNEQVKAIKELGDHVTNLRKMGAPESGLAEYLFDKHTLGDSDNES

Question: With “5(6)-FAM-CGGPKKKRKVG (SEQ ID NO: 10) ({5(6)‑FAM}-CGGPKKKRKVG) [FAM-SV40, fluorescent dye-modified peptide, linear]” as the substance, how does the “molecules of peptide encapsulated in one molecule of ferritin on average” value (FTH, from molar ratio) read?
Answer: Its value is 2.5 molecules.

Question: And the “encapsulation of peptide in FTH” value (absorbance at 480 nm at elution position of 24-mer FTH, LC-MS)?
Answer: Its value is “encapsulated in ferritin”.
